Test [1] addresses T1, TNFR2 variant in which the intracellular binding site for TRAF2 has been substituted by YFP (UniProt P20333 23-461).
T1 chain: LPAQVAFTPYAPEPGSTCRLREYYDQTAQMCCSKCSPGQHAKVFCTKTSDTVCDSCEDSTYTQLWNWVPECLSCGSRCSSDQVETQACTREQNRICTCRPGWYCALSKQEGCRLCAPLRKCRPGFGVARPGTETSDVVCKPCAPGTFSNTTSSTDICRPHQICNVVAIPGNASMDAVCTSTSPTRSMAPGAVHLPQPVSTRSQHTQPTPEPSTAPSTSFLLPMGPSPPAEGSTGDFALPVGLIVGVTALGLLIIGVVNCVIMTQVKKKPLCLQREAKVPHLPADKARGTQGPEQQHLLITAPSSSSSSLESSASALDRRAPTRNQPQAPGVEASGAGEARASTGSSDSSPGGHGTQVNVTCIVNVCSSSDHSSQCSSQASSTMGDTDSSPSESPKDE
Nature of the test: cells, second transfection empty vector.

For test [2], the target named is T1, TNFR2 variant in which the …. Nature of the test: cells co-expressing PGRN.

For one molecule, Kd results are on record in article PMC5925078 (2018).

B1: GpL-Flag-TNC-TNF (ligand)
chain: ACGCAAAPDIKDLLSRLEELEGLVSSLREQSDKPVAHVVANPQAEGQLQWLNRRANALLANGVELRDNQLVVPSEGLYLIYSQVLFKGQGCPSTHVLLTHTISRIAVSYQTKVNLLSAIKSPCQRETPEGAEAKPWYEPIYLGGVFQLEKGDRLSAEINRPDYLDFAESGQVYFGIIAL
On to B1, for which the Kd was 36 pM in test [1] and 49 pM in test [2].
